Laboratory results taken from paper PMC11066147.
“And” between values parts separate entries of the source, which are not always exact repeats. Identical values can stand only once. Like-named read-outs stand apart in the source and are kept apart here.

Legend:
Test in all cases: SPR
[1] = molecular target: PfHsp70-1LS (linker switch mutant of PfHsp70-1 carrying the linker of PfHsp70-z) (Plasmodium falciparum) (UniProt Q8IB24)
[2] = molecular target: DnaKLS (linker switch mutant of DnaK harbouring the PfHsp70-z linker) (E. coli) (UniProt P0A6Y8)
[3] = molecular target: PfHsp70-1LS (linker switch mutant of PfHsp70-1 carrying the linker of PfHsp70-z) (Plasmodium falciparum) (UniProt Q8IB24); remark: listed apart in the source
[4] = molecular target: PfHsp70-zLS (linker switch mutant of PfHsp70-z carrying the linker of canonical Hsp70) (Plasmodium falciparum) (UniProt Q8IC01)
[5] = molecular target: DnaKLS (linker switch mutant of DnaK harbouring the PfHsp70-z linker) (E. coli) (UniProt P0A6Y8); remark: listed apart in the source
[6] = molecular target: PfHsp70-zLS (linker switch mutant of PfHsp70-z carrying the linker of canonical Hsp70) (Plasmodium falciparum) (UniProt Q8IC01); remark: listed apart in the source

Row | Substance | Kd [1] | koff [1] | kon [1] | Kd [2] | Kd [3] | Kd [4] | Kd [5] | Kd [6] | kon [5] | koff [5]
1 | Plasmodium falciparum heat shock protein 70-1 (PfHsp70-1) (from UniProt Q8IB24 1-677) (natural protein) | 4.7 µM and 3.37 µM and 0.998 µM | 0.0935 s⁻¹ and 0.0539 s⁻¹ and 0.0392 s⁻¹ | 19900 M⁻¹ s⁻¹ and 16000 M⁻¹ s⁻¹ and 39500 M⁻¹ s⁻¹ | – | – | – | – | – | – | –
2 | ANNNMYRR (peptide) | 0.778 µM | – | – | 1.69 µM | 0.977 µM | 0.0033 µM | 1.77 µM | – | – | –
3 | PfHsp70-1LS (linker switch mutant of PfHsp70-1 carrying the linker of PfHsp70-z) (from UniProt Q8IB24 1-677) (natural protein) | 42.4 µM and 17.2 µM and 59 µM | 0.0447 s⁻¹ and 0.0633 s⁻¹ and 0.0666 s⁻¹ | – | – | – | – | – | – | – | –
4 | ALLLMYRR (peptide) | 0.0894 µM | – | – | 2.44 µM | 0.0993 µM | 0.0416 µM | 1.95 µM | 0.0365 µM | – | –
5 | NRLLTG (peptide) | 0.682 µM | – | – | 0.962 µM | 0.174 µM | 0.0211 µM | 0.891 µM | 0.0207 µM | – | –
6 | E. coli Hsp70 (DnaK) (from UniProt P0A6Y8 1-638) (natural protein) | – | – | – | – | – | – | – | – | 45700 M⁻¹ s⁻¹ and 73200 M⁻¹ s⁻¹ and 63200 M⁻¹ s⁻¹ | –
7 | DnaKLS (linker switch mutant of DnaK harbouring the PfHsp70-z linker) (from UniProt P0A6Y8 1-638) (natural protein) | – | – | – | – | – | – | – | – | – | 0.0714 s⁻¹ and 0.0903 s⁻¹ and 0.0492 s⁻¹
8 | NRNNTG (peptide) | 0.132 µM | – | – | 0.855 µM | 0.466 µM | 0.0256 µM | 0.716 µM | 0.0595 µM | – | –
